From patent US20250295799A1, “ANTIBODY-DRUG CONJUGATES TARGETING GLYPICAN-3 AND METHODS OF USE” (Zymeworks BC Inc., priority 2022, published 2025)

Assays:
[1] = target: human glypican-3 (GPC3) (human) (UniProt P51654); assay: cell-based or functional assay
[2] = target: human glypican-3 (GPC3) (human) (UniProt P51654); assay: flow cytometry on JHH-5 cells (GPC3-mid)
[3] = target: human glypican-3 (GPC3) (human) (UniProt P51654); assay: flow cytometry on JHH-7 cells (GPC3-high)
[4] = target: human glypican-3 (GPC3) (human) (UniProt P51654); assay: flow cytometry on CHO-S cells transfected with human GPC3
[5] = target: cynomolgus monkey glypican-3 (GPC3) (cynomolgus monkey); assay: flow cytometry on CHO-S cells transfected with cynomolgus GPC3
[6] = target: human glypican-3 (GPC3) (human) (UniProt P51654); assay: flow cytometry on JHH-7 cells; v21995 in PBS (not incubated in plasma), day 0
[7] = target: human GPC3 on cells (human) (UniProt P51654); assay: flow cytometry, JHH-7 cells; negative control

Substance | JHH-5 Internalization (MFI) [1] [MFI] | JHH-5 Internalization (MFI), Day 0 (in PBS) [1] [MFI] | JHH-7 Internalization (MFI) [1] [MFI] | JHH-7 Internalization (MFI), Day 0 (in PBS) [1] [MFI] | Kd [2] [µM] | Kd [3] [µM] | Kd [4] [µM] | Kd [5] [µM] | Bmax (MFI) [6] [MFI] | Kd [6] [µM] | Kd [7] [µM]
palivizumab (anti-RSV antibody), v21995 | 399 | 506 | 265 | 4 | > 0.15 | > 0.047 | > 0.15 | > 0.15 | 309 | 0.0377 | 
v22277 (palivizumab) (antibody) |  |  |  |  |  |  |  |  |  |  | > 0.06
